Assay [1] addresses enhanced Green Fluorescent Protein (eGFP), cytosolic. The assay can be described thus: FRET or BRET; homoFRET by time-resolved fluorescence anisotropy imaging (tr-FAIM), epifluorescence excitation, objective 60x NA 1.49, xNA = 1.2; living HEK293 cells, 37°C, 5% CO2.
Assay [2] has as its target L17C APP-eGFP (human APP751 with leucine 17 of the Aβ sequence mutated to cysteine, fused to eGFP) (human). The description is as above.
The target is the same in assay [3]. The experiment in a line: FRET or BRET; homoFRET by tr-FAIM under TIRF excitation (s polarized light), at the plasma membrane; objective 60x NA 1.49; living HEK293 cells, 37°C, 5% CO2.

Take “enhanced Green Fluorescent Protein (eGFP), cytosolic”: the proportion of molecules in interaction (homoFRET) in assay [1] was determined as 6.6%.

In the case of “L17C APP-eGFP (human APP751 with leucine 17 of the Aβ sequence mutated to cysteine, fused to eGFP) (natural protein)”, the depolarization time associated with energy transfer (homoFRET) in assay [2] turned out to be 2.4 ns; in assay [3], 5.4 ns.

These data come from article PMC3433432.
